Target: PA domain 3 (Bacillus anthracis)
Assay: ELISA

PA domain 3 (Bacillus anthracis), sequence (P13423 517-624 limits assumed): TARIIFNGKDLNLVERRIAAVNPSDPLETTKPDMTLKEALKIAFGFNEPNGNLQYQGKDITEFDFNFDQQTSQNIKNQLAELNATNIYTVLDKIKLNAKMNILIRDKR

B1: antibody 8A7 (antibody, V domains shown)
VH: EVQLLESGGGLVQPGGSLRLSCAASGFSFSSYAMSWVRQAPGTGLEWVSGISGSGDNIYYADSVKGRFTISRDNSKNTVYMQMNSLRAEDTALYYCAKFSGHYGSGSFHLPEYFQHWGQGTLVTVSS
VL: DIQMTQSPATLSASIGDRVTITCRASQSISSWLAWYQQKPGKAPKVLIYKASRLESGVPSRFSGSGSGTEFTLTISSLQPDDFATYYCQQYNTYWTFGQGTKVEIIR
**Q.** B1 was tested. Which EC50 did it give?
**A.** 0.06 nM

From paper PMC12502762
